Assay results as given in the nanobody polyreactivity screen of Harvey et al. (2022).

Test: yeast display, Sf9 membrane polyspecificity reagent, FACS + sequencing; frameworks hold sequencing errors
How it was run: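 Polyreactivity labels are assigned by the sorting gate from which each nanobody was recovered. The gates were low and high (top ~1%), set on anti-HA fluorescence for expression and streptavidin fluorescence for reagent binding. Before sorting, galactose-induced (36–48 hours) yeast display cells were stained for 1 hour at 4 °C with 10% biotinylated, detergent-solubilized Sf9 membrane reagent.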

Sequence | polyreactivity (PSR sort gate)
QVQLVESGGGLVQAGGSLRLSCAASGRIFFRNAMGWYRQAPGKERELVAVINTGGSTNYADSVKGRFTISRDNAKNTVYLQMNSLKPEDTAVYYCAVDRASRRTYNQYGYWGQGTQVTVSS | high polyreactivity
QVQLVESGGGLVQAGGSLRLSCAASGSTFTTYAMGWYRQAPGKEREFVASIRWRGGNTYYADSVKGRFTISRDNAKNTVYLQMNSLKPEDTAVYYCARRVDYISSKYGYWGQGTQVTVSS | high polyreactivity
QVQLVESGGGLVQAGGSLRLSCAASGSIFRVYAMGWYRQAPGKERELVAVITWTGGITYYADSVKGRFTISRDNAKNTVYLQMNSLKPEDTAVYYCNADLLTFAIKAPTGFYYWGQGTQVTVSS | high polyreactivity
QVQLVQSGGGLVQERGSLRLSCAASGRIFVKYTMGWSRQAPGKERELVAAIDFDTDSTYYADSVTGRFTISRDNAKNTVYLQMYSLKPEDTAVYYCATGYLYFTSYRYNYWGQGTQVTVSS | low polyreactivity
QVQLVESGGGLVQAGGSLRLSCAASGYTFYANAMGWYRQAPGKEREFVASITWSGGSTYYADSVKGRFTISRDNAKNTVYLQMNSLKTEDTAVYYCAAESWFKYDYWGQGTQVTVSS | low polyreactivity
QVQLVESGGGLVQAGGSLRLSCAASGNTFTKYAMGWYRQAPGKERELVADITIGGSTYYADSVKGRFTISRDNAKNTVYLQMNSLKPEDTAVYYCNADVVVQYYFTYYRVFTYDYWGQGTQVTVSS | low polyreactivity
QVQLVESGGGLVQAGGSLRLSCAASGFTFWGYAMGWYRQAPGKERELVAGITRSGGNTYYADSVKGRFTISRDNAKNTVYLEMNSLKPEDSAVYYCAKRHFWNLTPYYFYRTIPDYYWGQGTQVTVSS | high polyreactivity
QVQLVESGGGLVQAGGSLRLSCAASGITFQNYAMGWYRQAPGKERELVAGISYSGGSTYYADSVKGRFTISRDHAKNTVFLLMNSLKPEDTAVYDCAATRWYSYRRYYYWGQGTQVTVSS | high polyreactivity
QVQLVESGGGFVQAGGSLRLSCAAYGRTFGRYAMGWYRQAPGKERELVAAIRSGGSTYYADSVKGRFTISRDNAKNTVYLQMNSLKPEDTAVYYCAADIARHLTVFAYYRLDYWGQGTQVTVSS | low polyreactivity
QVQLVESGGGLVQSGGSLRLSCAASGRIFNIYAMGWYRPAPGKERELVAAISGSGGRTSYADSVKGRFTISRDNAKNTVYLQMNSLKPEDTAVYYCAADYSFYTSFRYDYWGQGTQVTVSS | low polyreactivity
QVQLVESGGGLVQAGGSLRLSCAASGRIYLRYTMGWYRQAPGKERELVAAISARTTGTYYADSVKGRFTISRDNAKNTVYLQMKSLKPEDTAVYYCASKSKLSRDLYSWGQGTQVTVSS | low polyreactivity
QVQLVESGGGLVQAGGSLRLSCAPSGRTFGVYAMGWYRQAPGKERELVATISFNVASTYADSVKGRFTISRDNAKNTVYLQMNSLKPEDTAVYYCAVTAVRPLPLDSGYDYWGQGTQVTVSS | low polyreactivity
QVQHVESGGGLVQAGGSLRLSCAASGITFFYYAMGWYRQAPGKERELVAAISTSGGRTYYADSVKGRFTISRDNAKNTVYLQMNSLKPEDTAVYYCADQSGWLRYYYWGQGTQVTVSS | high polyreactivity
QVQLVESGGGLVQAGGSLRLSCAASGRTFKTYAMAWYRQAPGKERELVAAISRDGRTYYADSVKGRFTISRDNAKNTVYLQMNSLKPEDTAVYYCNKRSYRNGDYWGQGTQVTVSS | low polyreactivity
QVQLVESVGGLDQAGGSLRLSCAASVFTFNIYVMGWYRQAPGKERELVAAISTSTGSTYYADSVKGRFTISRDNAKNTVYLQMNSLKPQDTAVYYCNADDYDLRFDYWGQGTQVTVSS | low polyreactivity
QVQLVESGGGLVQAGGSLRLSCAASGFTFIRNAMGWYRQAPVKERELVAAISKSGGTTYYADSVKGRFTISRDNAKNTVYLQMNSLKPEDTAVYYCNKGIGRSDPDYRYYYWGQGTQVTVSS | high polyreactivity

Sequence | polyreactivity (PSR sort gate)
QVQLVESGGGLVQAGSTLRLSCAASGRIFDLYTMGWYRQAPGKERELVAAIRWSDGSTYYADSVKGRFTISRDYAKNTVYLQMNSLKPEDTAVYYCAADTRTSYYNDDYDYWGQGTQVTVSS | low polyreactivity
QVQLVESGGGLVQAGGSLRLSCAASGSTFWANAMGWYRQAPGKERELVAAITSTGITYYADSVKGRFTISRDNAKNTVYLQMNSLKPEDTAVYYCAADGYRYSVYLIRNPMDYWGQGTQVTVSS | low polyreactivity
QVQLVESGGGLVQAGGSLRLSCAASGRIFDEYALGWYRQAPGKEREFVAAITYSAGSTYYADSVKGRFTISRDNAKNTVYLQMNSLKPEDTAVYDCAADRYYWWWYTYNYWGQGTQVTVSS | low polyreactivity
QVQLVESGGGLVQAGGSLRLSCAASGSTFSQYVMGWYRQAPGKERELVAAISSGGSTYYADSVKGRFTISRDNAKNTVYLQMNSLKPEDTAVYYCAAKYDGSYVGLYWYSMNYWGQGTQVTVSS | low polyreactivity
QVQLVESRGGLVQAGGSLRLSCAASGSTFTYNAMGWYRQAPGKERELVASINSGGSTYYADSVKGRFTISRDNAKNNFYLQMNSLKPEDTAVYYCAKDLHLDSYASDYWGQGTQVTVSS | low polyreactivity
QVQLVESGGGIVQAGGSLRLSSAASGSIIFYYAMGWYRQPRGKEREFVAAITRSGVRTYYADSVKGRFTISRDNAKNTVYLQMNSLKPEDTAVYYCNDDYGFYRPVLMGFWGQGTQVTVSS | low polyreactivity
QVQLVESGGGLVQAGASLRLSCAASGITLYLYDMGWYRQAPGKERELVASITSDGSTDYADSVKGRFTISRDNAKNTVFLQMNSLKPEDTAVYYCIARVTYSWYRFGRSGDDSWGQGSQVTVSS | low polyreactivity
QVQLVESGGGLVQAGGSLRLSCAASGRTFSVNAMGWYRQAPGKERELVAAISWDGGSTYYADSVKGRFTISRDNAKNTVYLQMNSLKPVDTAVYYCNKDLYYAYDYWGQGTQVTVSS | low polyreactivity
QVQLVESGGGLVQAGGSLRLSCAASGRTFYPYVMGWYRQAPGKERELVATISWSGGSTYYADSVKGRFTISRDNAKNTVYLQMNSLKPEDTAVYYCAALWPYGYWGQGTQVTVSS | low polyreactivity
QVQLVESGGGLVQAGGSLRLSCAASGRILYYYAMGWYRQAPGKERELVAAISGSAGTTYYADSVKGRFTISRDNAKNPVYLQMNSLKPEDTAVYYCSKYYPYIQADYGYDYWGQGTQVSVSS | low polyreactivity
QVQLVESGGGLVQAGGSLRLSCAASGRIQDINAMGWYRQAPGKERELVAAISYGGGTTYYADSVKGRFTISRDNAKNTVYLQMNSLKPEDTAVYYCAKDGYFPEFDYWGQGTQVTVSS | high polyreactivity
QVQLVESGGALVQAGGSLRLSCAASGSIFDDNAMGWYRQAPGKERELVAAITGSGGRTYYADSVKGRFTISRDNAQNTVDLQMNSLKPEDTAVYYCAAQGAYNYFNAWYGYEYWGQGTQVTVSS | high polyreactivity
QVQLVESGGGLVQAGGSLRLICAASGRTFNRYAMGWYRTAPRTERELVAVINSASSTNYADSVKGRFTISRDNAKNTVYLQMYSLKPEDTAVYYCNADGYRWYWYTGPMDYWGQGTKVTVSS | high polyreactivity
QVQLVESGGGLVQAGGSLRLSCAASGRTFARYAMGWYRQAPGKERELVAAISSGGSTYYADSVKGRFTISRDNAKNTVYLQMNSLKPEDTAVYYCAAEWHYIYAYDYWGQGTQVTVSS | low polyreactivity
QVQLVESGGGLVQAGGSLRLSCAASGRILYSYAMGWYRQAPGKERELVAAISSTGSTYYADSVKGRFTISRDNAKNTVYLQMNSLKPEDTAVYYCAATFYPYQVHHYYYWGQGTQVTVSS | low polyreactivity
QVQLVESGGGLVQAGGSLRLSCAASGRIFVVNAMGWYRQAPGKERELVATITRGASTYADSVKGRFTISRDNAKNTVYLQMNSLKPEDTAVYYCAARSGSWGQGTQVTVSS | high polyreactivity
